# Patent publication US20220396617A1 (BEIJING MABWORKS BIOTECH, published 2022)
# Like-named read-outs stand apart in the source and are kept apart here.
# T1: human TIGIT expressed on HEK293A cells (human, UniProt Q495A1 22-244)
# T1 construct: also called HEK293A/human TIGIT cells
# T1 sequence: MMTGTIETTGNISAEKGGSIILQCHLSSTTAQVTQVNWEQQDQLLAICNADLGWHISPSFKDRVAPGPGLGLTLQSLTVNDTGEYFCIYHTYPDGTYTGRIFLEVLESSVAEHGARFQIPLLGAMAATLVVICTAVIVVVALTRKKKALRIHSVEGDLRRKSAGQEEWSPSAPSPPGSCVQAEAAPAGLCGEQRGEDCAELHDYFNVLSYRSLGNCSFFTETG
# T2: TIGIT (ECD)-hFc (human, UniProt Q495A1 22-141)
# T2 construct: bought protein; also called recombinant human TIGIT (ECD)-hFc; Cat #: 10917-H02H, Sino Biological; not shown: human Fc (hFc) of the bought protein
# T2 sequence: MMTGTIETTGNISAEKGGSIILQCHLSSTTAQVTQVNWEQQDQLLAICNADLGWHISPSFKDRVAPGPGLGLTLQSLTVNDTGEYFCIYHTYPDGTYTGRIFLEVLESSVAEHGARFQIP
# T3: human TIGIT (ECD)-his (human, UniProt Q495A1 22-141)
# T3 construct: bought protein; also called hTIGIT(ECD)-his; Cat #: 10917-H08H, Sino Biological; not shown: his tag of the bought protein
# T3 sequence: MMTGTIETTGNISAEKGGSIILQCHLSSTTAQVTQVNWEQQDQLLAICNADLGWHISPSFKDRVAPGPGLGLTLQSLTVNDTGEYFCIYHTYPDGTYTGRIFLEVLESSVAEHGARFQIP
# Columns and labels:
# [1] = target: T1, human TIGIT expressed on HEK293A cells; experiment: FACS, HEK293A/human TIGIT cells, serially diluted antibody (protocol of Example 5) [A]
# Description: (§1) After incubated at 4° C. for 1 h, plates were washed 3 times with PBST. Then, APC coupled Goat Anti-Mouse IgG (Cat #: 405308, BioLegend, US) diluted 500x was added to the plates. After incubation at 4° C. for 1 h, the plates were washed with PBS for 3 times and then cell fluorescence was monitored using a FACS machine (BD).
# [2] = target: T4, monkey TIGIT expressed on HEK293A cells (monkey); experiment: FACS, HEK293A/monkey TIGIT cells, serially diluted antibody (protocol of Example 5) [B]
# T4 construct: also called HEK293A/monkey TIGIT cells
# T4 sequence (chain, as listed by the source limits assumed): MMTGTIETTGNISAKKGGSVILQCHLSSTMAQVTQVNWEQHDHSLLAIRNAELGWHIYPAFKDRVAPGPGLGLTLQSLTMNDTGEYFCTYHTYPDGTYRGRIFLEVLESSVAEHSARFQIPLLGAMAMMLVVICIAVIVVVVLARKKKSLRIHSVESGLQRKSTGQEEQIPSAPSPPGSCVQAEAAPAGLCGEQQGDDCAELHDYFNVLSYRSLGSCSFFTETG
# Description: as §1
# [3] = target: T2, TIGIT (ECD)-hFc; experiment: FACS blocking assay (protocol of Example 7): serially diluted antibody pre-incubated with TIGIT (ECD)-hFc, then binding of TIGIT (ECD)-hFc to A549/human PVR cells measured; blocked ligand: human PVR
# Description: (§2) After incubated at 4° C. for 1 h, plates were washed 3 times with PBST and then added with PE coupled Goat Anti-human IgG (Cat #: PAI-86078, Thermofisher, US) diluted 500×. After incubation at 4° C. for 1 h, the plates were washed with PBST for 3 times and then cell fluorescence was monitored using a FACS machine (BD).
# [4] = target: T1, human TIGIT expressed on HEK293A cells; experiment: FACS on HEK293A/human TIGIT cells
# Description: as §1
# [5] = target: T4, monkey TIGIT expressed on HEK293A cells; experiment: FACS on HEK293A/monkey TIGIT cells
# Description: as §1
# [6] = target: T3, human TIGIT (ECD)-his; experiment: ELISA, coated human TIGIT (ECD)-his (table head says FACS)
# Description: Plates were washed for 3 times with PBST (PBS+0.05% Tween20), added with Goat-anti-mouse IgG-HRP (Cat #: A9309-1 ml, Sigma, US) diluted 5000×, and incubated for 1 h at room temperature. Plates were incubated with freshly prepared Ultra-TMB (Cat #: 555214, BD, US) for 5 minutes at room temperature for color development.
# [7] = target: T2, TIGIT (ECD)-hFc; experiment: FACS blocking assay: antibody preincubated with TIGIT (ECD)-hFc, binding to A549/human PVR cells
# Description: as §2
# [8] = target: T1, human TIGIT expressed on HEK293A cells; experiment: cell-based or functional assay
# [9] = target: T1, human TIGIT expressed on HEK293A cells; experiment: FACS, HEK293A/human TIGIT cells, serially diluted antibody (protocol of Example 5) [A]; remark: listed apart in the source
# [10] = target: T2, TIGIT (ECD)-hFc; experiment: FACS blocking assay (protocol of Example 7): serially diluted antibody pre-incubated with TIGIT (ECD)-hFc, then binding of TIGIT (ECD)-hFc to A549/human PVR cells measured; blocked ligand: human PVR [B]
# [11] = target: T3, human TIGIT (ECD)-his; experiment: SPR (BIAcore 8K), human TIGIT (ECD)-his on CM5 chip, antibody injected
# Description: They were also tested in SPR assays for their binding affinities to human and monkey TIGITs using the BIAcore™ 8K instrument (GE Life Sciences, US). […] The binding affinities were calculated with the RUs of blank controls subtracted. The association rate (kₐ) and dissociation rate (kd) were calculated using the one-to-one Langmuir binding model (BIA Evaluation Software, GE Life Sciences, US). The equilibrium dissociation constant KD was calculated as the kd/kₐ ratio.
# [12] = target: T5, monkey TIGIT (ECD)-hFc (monkey (cynomolgus)); experiment: ELISA, coated monkey TIGIT (ECD)-hFc (table head says FACS)
# T5 construct: bought protein; also called cynoTIGIT(ECD)-hFc; cynomolgus TIGIT (ECD)-hFc; not shown: human Fc (hFc) of the bought protein
# [13] = target: T5, monkey TIGIT (ECD)-hFc; experiment: SPR (BIAcore 8K), monkey TIGIT (ECD)-hFc on CM5 chip, antibody injected
Binder,EC50 (read off the curve) [1],EC50 (read off the curve) [2],EC50 [4],EC50 [5],"NK92-mediated ADCC against HEK293A/human TIGIT cells, EC50 [8]",EC50 (read off the curve) [9],IC50 (read off the curve) [10],Kd [11],other results
"chimeric 70E11 (antibody, human IgG1, kappa, V domains shown, mouse variable regions with human IgG1/kappa constant regions; also called chimeric antibody 70E11) VH: QVQLQQPGTDLVKPGASVRMSCKASGYTFTSYNVHWVKQTPGQGLEWIGTIYPGNLATSYNQKFKGKATLTADKSSTTAYMQLSSLTSEDSAVYYCARSGTMDYWGQGTTLTVSS VL: ENVVTQSPAIMSASPGEKVTMTCRASSSISSTYLHWYQQKSGASPKLWIYNTQNLASGVPARISGSGSGTSYSLTISSVEAEDAATYYCQQFGGYPLITFGAGTKLELKR",~0.2 µg/mL,~0.2 µg/mL,–,–,–,–,–,–,IC50 (read off the curve) [3]: ~3 µg/mL
"mouse 70E11 (antibody, V domains shown, also called antibody from clone 70E11) VH: QVQLQQPGTDLVKPGASVRMSCKASGYTFTSYNVHWVKQTPGQGLEWIGTIYPGNLATSYNQKFKGKATLTADKSSTTAYMQLSSLTSEDSAVYYCARSGTMDYWGQGTTLTVSS VL: ENVVTQSPAIMSASPGEKVTMTCRASSSISSTYLHWYQQKSGASPKLWIYNTQNLASGVPARISGSGSGTSYSLTISSVEAEDAATYYCQQFGGYPLITFGAGTKLELK",–,–,0.56 nM,0.39 nM,–,–,–,–,EC50 [6]: 0.82 nM; EC50 [7]: 43 nM
"149G11-VH3VL2 (antibody, human IgG1, kappa, V domains shown, humanized, human IgG1/kappa) VH: QVQLVQSGAEVKKPGASVKVSCKASGYTFTNYWIHWVKQAPGQGLEWIGDIYPGGRYSNYNEKFRGRVTLTADTSTSTVYMELSSLTSEDTAVYYCARYYESAMDFWGQGTTVTVSS VL: DIVMTQSPDSLAVSLGERATINCKSSQNLLYNSNQKSYLAWFQQKPGQPPKLLIYWASTRESGVPDRFSGSGSGTDFTLTISSLQAEDLAVYYCQQYYNYPFTFGAGTKLELKR",–,–,–,–,0.013 nM,~0.2 µg/mL,~2 µg/mL,–,–
"149G11-VH3VL3 (antibody, human IgG1, kappa, V domains shown, humanized, human IgG1/kappa) VH: QVQLVQSGAEVKKPGASVKVSCKASGYTFTNYWIHWVKQAPGQGLEWIGDIYPGGRYSNYNEKFRGRVTLTADTSTSTVYMELSSLTSEDTAVYYCARYYESAMDFWGQGTTVTVSS VL: DIVMTQSPDSLAVSLGERATVNCKSSQNLLYNSNQKSYLAWFQQKPGQSPKLLIYWASTRESGVPDRFSGSGSGTDFTLTISSLQAEDLAVYYCQQYYNYPFTFGAGTKLELKR",–,–,–,–,0.014 nM,~0.2 µg/mL,~2 µg/mL,–,–
"149G11-VH4VL2 (antibody, human IgG1, kappa, V domains shown, humanized, human IgG1/kappa) VH: QVQLVQSGAEVKKPGASVKVSCKASGYTFTNYWIHWVKQRPGHGLEWIGDIYPGGRYSNYNEKFRGRVTLTADTSTSTVYMELSSLTSEDTAVYYCARYYESAMDFWGQGTTVTVSS VL: DIVMTQSPDSLAVSLGERATINCKSSQNLLYNSNQKSYLAWFQQKPGQPPKLLIYWASTRESGVPDRFSGSGSGTDFTLTISSLQAEDLAVYYCQQYYNYPFTFGAGTKLELKR",–,–,–,–,0.0184 nM,~0.2 µg/mL,~2 µg/mL,0.00309 nM,–
"149G11-VH4VL3 (antibody, human IgG1, kappa, V domains shown, humanized, human IgG1/kappa) VH: QVQLVQSGAEVKKPGASVKVSCKASGYTFTNYWIHWVKQRPGHGLEWIGDIYPGGRYSNYNEKFRGRVTLTADTSTSTVYMELSSLTSEDTAVYYCARYYESAMDFWGQGTTVTVSS VL: DIVMTQSPDSLAVSLGERATVNCKSSQNLLYNSNQKSYLAWFQQKPGQSPKLLIYWASTRESGVPDRFSGSGSGTDFTLTISSLQAEDLAVYYCQQYYNYPFTFGAGTKLELKR",–,–,–,–,0.0177 nM,~0.2 µg/mL,~2 µg/mL,0.0022 nM,–
"149G11-VH2VL3 (antibody, human IgG1, kappa, V domains shown, humanized, human IgG1/kappa; also called 149G11H2L3) VH: QVQLVQSGAEVKKPGASVKVSCKASGYTFTNYWIHWVRQAPGQGLEWIGDIYPGGRYSNYNEKFRGRVTLTADTSTSTVYMELSSLTSEDTAVYYCARYYESAMDFWGQGTTVTVSS VL: DIVMTQSPDSLAVSLGERATVNCKSSQNLLYNSNQKSYLAWFQQKPGQSPKLLIYWASTRESGVPDRFSGSGSGTDFTLTISSLQAEDLAVYYCQQYYNYPFTFGAGTKLELKR",–,–,–,–,0.00795 nM,~0.2 µg/mL,~2 µg/mL,0.00329 nM,–
"chimeric 149G11 (antibody, human IgG1, kappa, V domains shown, mouse variable regions with human IgG1/kappa constant regions; also called chimeric antibody 149G11) VH: QVQLQQSGTELVRPGTSVKMSCRTAGYTFTNYWIHWVKQRPGHGLEWIGDIYPGGRYSNYNEKFRGKATLTADTSSSTAYMELSSLTSEDSAIYYCARYYESAMDFWGQGTSVTVSS VL: DIVMSQSPSSLAVSVGEKVTVNCKSSQNLLYNSNQKSYLAWFQQKPGQSPKLLIYWASTRESGVPDRFTGSGSGTDFTLTISSVKAEDLAVYYCQQYYNYPFTFGSGTKLEIKR",~0.2 µg/mL,~0.5 µg/mL,–,–,–,~0.2 µg/mL,–,–,IC50 (read off the curve) [3]: ~3 µg/mL
"mouse 149G11 (antibody, V domains shown, also called antibody from clone 149G11) VH: QVQLQQSGTELVRPGTSVKMSCRTAGYTFTNYWIHWVKQRPGHGLEWIGDIYPGGRYSNYNEKFRGKATLTADTSSSTAYMELSSLTSEDSAIYYCARYYESAMDFWGQGTSVTVSS VL: DIVMSQSPSSLAVSVGEKVTVNCKSSQNLLYNSNQKSYLAWFQQKPGQSPKLLIYWASTRESGVPDRFTGSGSGTDFTLTISSVKAEDLAVYYCQQYYNYPFTFGSGTKLEIK",–,–,0.1 nM,1.2 nM,–,–,–,–,EC50 [6]: 0.86 nM; EC50 [7]: 41 nM
"Tiragolumab (antibody, V domains shown) VH: EVQLQQSGPGLVKPSQTLSLTCAISGDSVSSNSAAWNWIRQSPSRGLEWLGKTYYRFKWYSDYAVSVKGRITINPDTSKNQFSLQLNSVTPEDTAVFYCTRESTTYDLLAGPFDYWGQGTLVTVSS VL: not shown",~0.2 µg/mL,~0.2 µg/mL,0.44 nM,0.9 nM,0.0465 nM,–,–,–,EC50 [12]: 0.14 nM; Kd [13]: 0.0622 nM
